This data set deals with human recombinant prion protein hrPrP (PrP23-231) (Homo sapiens) (UniProt P04156). Description: FP filter.
[1] abbreviates: no tRNA, 250 mM NaCl, 2 mM MgCl2, 37 C.

Drawing on patent US20050239072, this text covers Kd for 2 substances.

As a reminder, the Kd is the constant that tells how readily two partners part at equilibrium. As to MDV (244 nt), the equilibrium dissociation constant (Kd) reads like this: under setting [1], 7.6 nM; (with tRNA competitor) 170 nM.

Turning to MNV (86 nt), the Kd came out at 38 nM under setting [1] and 1000 nM (with tRNA competitor).
